Test results: the supplement of paper PMC10567573

B1: ZNF511 (parent)
chain: EPLPVERDPAAGAAPFRFVARPVR

Variants of: B1
Assay: protein stability index of a GFP-peptide fusion (GPS, HEK-293T) (PSI 1-6); higher = more stable
Details: c terminus: a fixed tail appended
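Note: lentivirally expressed fusions sorted by FACS into six bins by GFP to DsRed ratio, PSI derived from sequencing read proportions per bin multiplied by bin number.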

Variant	protein stability index
EPLPVERDPAAGCAPFRFVARPVR [A13C]	2
EPLPVERDPAAGSAPFRFVARPVR [A13S]	3.04
EPLPVERDPAAGTAPFRFVARPVR [A13T]	2.5
EPLPVERDPAAGMAPFRFVARPVR [A13M]	3.42
EPLPVERDPAAGGAPFRFVARPVR [A13G]	2.48
EPLPVERDPAAGKAPFRFVARPVR [A13K]	2.71
EPLPVERDPAAGNAPFRFVARPVR [A13N]	2.58
EPLPVERDPAAGWAPFRFVARPVR [A13W]	1.77
EPLPVERDPAAGEAPFRFVARPVR [A13E]	2.62
EPLPVERDPAAGYAPFRFVARPVR [A13Y]	2.02
EPLPVERDPAAGQAPFRFVARPVR [A13Q]	2.6
EPLPVERDPAAGRAPFRFVARPVR [A13R]	2.34
EPLPVERDPAAGFAPFRFVARPVR [A13F]	1.94
EPLPVERDPAAGIAPFRFVARPVR [A13I]	1.66
EPLPVERDPAAGPAPFRFVARPVR [A13P]	2.37
EPLPVERDPAAGHAPFRFVARPVR [A13H]	2.43
EPLPVERDPAAGDAPFRFVARPVR [A13D]	3.26
EPLPVEHDPAAGAAPFRFVARPVR [R7H]	2.57
EPLPVELDPAAGAAPFRFVARPVR [R7L]	2.82
EPLPVEKDPAAGAAPFRFVARPVR [R7K]	2.12
EPLPVEFDPAAGAAPFRFVARPVR [R7F]	2.1
EPLPVEADPAAGAAPFRFVARPVR [R7A]	2.25
EPLPVEMDPAAGAAPFRFVARPVR [R7M]	2.09
EPLPVETDPAAGAAPFRFVARPVR [R7T]	3

Variant	protein stability index
EPLPVEYDPAAGAAPFRFVARPVR [R7Y]	1.75
EPLPVESDPAAGAAPFRFVARPVR [R7S]	2.34
EPLPVEPDPAAGAAPFRFVARPVR [R7P]	2.22
EPLPVEWDPAAGAAPFRFVARPVR [R7W]	1.05
EPLPVECDPAAGAAPFRFVARPVR [R7C]	2.06
EPLPVENDPAAGAAPFRFVARPVR [R7N]	2.32
EPLPVEIDPAAGAAPFRFVARPVR [R7I]	2.91
EPLPVEEDPAAGAAPFRFVARPVR [R7E]	3.03
EPLPVEVDPAAGAAPFRFVARPVR [R7V]	2.42
EPLPVEGDPAAGAAPFRFVARPVR [R7G]	2.1
EPLPVEQDPAAGAAPFRFVARPVR [R7Q]	2.65
EPLPVEDDPAAGAAPFRFVARPVR [R7D]	2.9
EPLPVERDPEAGAAPFRFVARPVR [A10E]	2.99
EPLPVERDPIAGAAPFRFVARPVR [A10I]	2.44
EPLPVERDPPAGAAPFRFVARPVR [A10P]	2.41
EPLPVERDPVAGAAPFRFVARPVR [A10V]	1.38
EPLPVERDPWAGAAPFRFVARPVR [A10W]	1.43
EPLPVERDPRAGAAPFRFVARPVR [A10R]	2.55
EPLPVERDPLAGAAPFRFVARPVR [A10L]	2.71
EPLPVERDPKAGAAPFRFVARPVR [A10K]	1.72
EPLPVERDPCAGAAPFRFVARPVR [A10C]	1.88
EPLPVERDPGAGAAPFRFVARPVR [A10G]	2.17
EPLPVERDPTAGAAPFRFVARPVR [A10T]	2.15
EPLPVERDPDAGAAPFRFVARPVR [A10D]	2.46

Variant	protein stability index
EPLPVERDPNAGAAPFRFVARPVR [A10N]	3.07
EPLPVERDPHAGAAPFRFVARPVR [A10H]	1.87
EPLPVERDPYAGAAPFRFVARPVR [A10Y]	2.97
EPLPVERDPQAGAAPFRFVARPVR [A10Q]	2.11
EPLPVERDPFAGAAPFRFVARPVR [A10F]	1.64
EPLPVERDPSAGAAPFRFVARPVR [A10S]	2.23
EPLPVERDPMAGAAPFRFVARPVR [A10M]	2.11
EPLEVERDPAAGAAPFRFVARPVR [P4E]	2.43
EPLSVERDPAAGAAPFRFVARPVR [P4S]	3.43
EPLWVERDPAAGAAPFRFVARPVR [P4W]	1.58
EPLIVERDPAAGAAPFRFVARPVR [P4I]	2.9
EPLQVERDPAAGAAPFRFVARPVR [P4Q]	1.99
EPLVVERDPAAGAAPFRFVARPVR [P4V]	2.49
EPLMVERDPAAGAAPFRFVARPVR [P4M]	2.66
EPLNVERDPAAGAAPFRFVARPVR [P4N]	2.29
EPLKVERDPAAGAAPFRFVARPVR [P4K]	2.09
EPLFVERDPAAGAAPFRFVARPVR [P4F]	2.52
EPLCVERDPAAGAAPFRFVARPVR [P4C]	1.91
EPLTVERDPAAGAAPFRFVARPVR [P4T]	2.8
EPLHVERDPAAGAAPFRFVARPVR [P4H]	2.14
EPLRVERDPAAGAAPFRFVARPVR [P4R]	3.23
EPLLVERDPAAGAAPFRFVARPVR [P4L]	2.27
EPLAVERDPAAGAAPFRFVARPVR [P4A]	2.88
EPLGVERDPAAGAAPFRFVARPVR [P4G]	2.63

Variant	protein stability index
EPLYVERDPAAGAAPFRFVARPVR [P4Y]	1.64
EPLDVERDPAAGAAPFRFVARPVR [P4D]	2.9
EPLPVQRDPAAGAAPFRFVARPVR [E6Q]	2.52
EPLPVHRDPAAGAAPFRFVARPVR [E6H]	2.44
EPLPVFRDPAAGAAPFRFVARPVR [E6F]	3.14
EPLPVYRDPAAGAAPFRFVARPVR [E6Y]	2.03
EPLPVPRDPAAGAAPFRFVARPVR [E6P]	3
EPLPVCRDPAAGAAPFRFVARPVR [E6C]	3.25
EPLPVSRDPAAGAAPFRFVARPVR [E6S]	1.96
EPLPVVRDPAAGAAPFRFVARPVR [E6V]	3.22
EPLPVWRDPAAGAAPFRFVARPVR [E6W]	1.56
EPLPVGRDPAAGAAPFRFVARPVR [E6G]	2.08
EPLPVLRDPAAGAAPFRFVARPVR [E6L]	2.98
EPLPVNRDPAAGAAPFRFVARPVR [E6N]	2.5
EPLPVIRDPAAGAAPFRFVARPVR [E6I]	2.34
EPLPVRRDPAAGAAPFRFVARPVR [E6R]	3.13
EPLPVTRDPAAGAAPFRFVARPVR [E6T]	2.6
EPLPVARDPAAGAAPFRFVARPVR [E6A]	2.92
EPLPVKRDPAAGAAPFRFVARPVR [E6K]	1.99
EPLPVDRDPAAGAAPFRFVARPVR [E6D]	1.68
EPLPVMRDPAAGAAPFRFVARPVR [E6M]	2.52
EPLPRERDPAAGAAPFRFVARPVR [V5R]	2.85
EPLPAERDPAAGAAPFRFVARPVR [V5A]	2.18
EPLPTERDPAAGAAPFRFVARPVR [V5T]	1.83

Variant	protein stability index
EPLPPERDPAAGAAPFRFVARPVR [V5P]	2
EPLPKERDPAAGAAPFRFVARPVR [V5K]	1.77
EPLPLERDPAAGAAPFRFVARPVR [V5L]	2.23
EPLPWERDPAAGAAPFRFVARPVR [V5W]	2.64
EPLPEERDPAAGAAPFRFVARPVR [V5E]	2.17
EPLPQERDPAAGAAPFRFVARPVR [V5Q]	2.37
EPLPFERDPAAGAAPFRFVARPVR [V5F]	2.12
EPLPDERDPAAGAAPFRFVARPVR [V5D]	2.54
EPLPCERDPAAGAAPFRFVARPVR [V5C]	2.39
EPLPIERDPAAGAAPFRFVARPVR [V5I]	2.46
EPLPYERDPAAGAAPFRFVARPVR [V5Y]	2.1
EPLPSERDPAAGAAPFRFVARPVR [V5S]	2.56
EPLPHERDPAAGAAPFRFVARPVR [V5H]	1.96
EPLPNERDPAAGAAPFRFVARPVR [V5N]	2.82
EPLPMERDPAAGAAPFRFVARPVR [V5M]	2.71
EPLPVERDPAGGAAPFRFVARPVR [A11G]	1.83
EPLPVERDPAEGAAPFRFVARPVR [A11E]	3
EPLPVERDPAIGAAPFRFVARPVR [A11I]	3.02
EPLPVERDPARGAAPFRFVARPVR [A11R]	1.78
EPLPVERDPAQGAAPFRFVARPVR [A11Q]	2.12
EPLPVERDPAKGAAPFRFVARPVR [A11K]	2.34
EPLPVERDPAVGAAPFRFVARPVR [A11V]	1.42
EPLPVERDPAFGAAPFRFVARPVR [A11F]	2.02
EPLPVERDPACGAAPFRFVARPVR [A11C]	2.18

Variant	protein stability index
EPLPVERDPAMGAAPFRFVARPVR [A11M]	1.71
EPLPVERDPANGAAPFRFVARPVR [A11N]	1.75
EPLPVERDPALGAAPFRFVARPVR [A11L]	1.86
EPLPVERDPAYGAAPFRFVARPVR [A11Y]	1.88
EPLPVERDPADGAAPFRFVARPVR [A11D]	2.33
EPLPVERDPAPGAAPFRFVARPVR [A11P]	2.68
EPLPVERDPATGAAPFRFVARPVR [A11T]	2.08
EPLPVERDPAHGAAPFRFVARPVR [A11H]	2.61
EPLPVERDPAWGAAPFRFVARPVR [A11W]	1.98
EPLPVERDPASGAAPFRFVARPVR [A11S]	2.43
EPLPVERDPAAMAAPFRFVARPVR [G12M]	2.38
EPLPVERDPAAEAAPFRFVARPVR [G12E]	2.09
EPLPVERDPAAYAAPFRFVARPVR [G12Y]	1.96
EPLPVERDPAADAAPFRFVARPVR [G12D]	2.65
EPLPVERDPAATAAPFRFVARPVR [G12T]	1.64
EPLPVERDPAAKAAPFRFVARPVR [G12K]	2.52
EPLPVERDPAAAAAPFRFVARPVR [G12A]	2.06
EPLPVERDPAANAAPFRFVARPVR [G12N]	2.27
EPLPVERDPAAIAAPFRFVARPVR [G12I]	1.46
EPLPVERDPAAWAAPFRFVARPVR [G12W]	1.67
EPLPVERDPAACAAPFRFVARPVR [G12C]	2.79
EPLPVERDPAALAAPFRFVARPVR [G12L]	2.4
EPLPVERDPAAPAAPFRFVARPVR [G12P]	1.76
EPLPVERDPAAFAAPFRFVARPVR [G12F]	2.01

Variant	protein stability index
EPLPVERDPAASAAPFRFVARPVR [G12S]	2.02
EPLPVERDPAAQAAPFRFVARPVR [G12Q]	2.55
EPLPVERDPAARAAPFRFVARPVR [G12R]	2.33
EPLPVERDPAAVAAPFRFVARPVR [G12V]	1.92
EPLPVERDPAAHAAPFRFVARPVR [G12H]	2.64
EPLPVERDWAAGAAPFRFVARPVR [P9W]	1.33
EPLPVERDMAAGAAPFRFVARPVR [P9M]	2.73
EPLPVERDTAAGAAPFRFVARPVR [P9T]	2.74
EPLPVERDLAAGAAPFRFVARPVR [P9L]	2.42
EPLPVERDFAAGAAPFRFVARPVR [P9F]	2.17
EPLPVERDGAAGAAPFRFVARPVR [P9G]	1.96
EPLPVERDDAAGAAPFRFVARPVR [P9D]	2.38
EPLPVERDQAAGAAPFRFVARPVR [P9Q]	1.98
EPLPVERDCAAGAAPFRFVARPVR [P9C]	2.34
EPLPVERDNAAGAAPFRFVARPVR [P9N]	2.24
EPLPVERDVAAGAAPFRFVARPVR [P9V]	1.92
EPLPVERDEAAGAAPFRFVARPVR [P9E]	2.2
EPLPVERDKAAGAAPFRFVARPVR [P9K]	1.46
EPLPVERDAAAGAAPFRFVARPVR [P9A]	1.72
EPLPVERDYAAGAAPFRFVARPVR [P9Y]	2.12
EPLPVERDIAAGAAPFRFVARPVR [P9I]	2.34
EPLPVERDRAAGAAPFRFVARPVR [P9R]	1.54
EPLPVERDHAAGAAPFRFVARPVR [P9H]	2.59
EPLPVERDSAAGAAPFRFVARPVR [P9S]	2.08

Variant	protein stability index
EPLPVERDPAAGADPFRFVARPVR [A14D]	4.71
EPLPVERDPAAGACPFRFVARPVR [A14C]	2.2
EPLPVERYPAAGAAPFRFVARPVR [D8Y]	2.63
EPLPVERCPAAGAAPFRFVARPVR [D8C]	2.37
EPLPVERSPAAGAAPFRFVARPVR [D8S]	2.36
EPLPVERTPAAGAAPFRFVARPVR [D8T]	2.99
EPLPVEREPAAGAAPFRFVARPVR [D8E]	2.13
EPLPVERRPAAGAAPFRFVARPVR [D8R]	2.21
EPLPVERHPAAGAAPFRFVARPVR [D8H]	2.25
EPLPVERWPAAGAAPFRFVARPVR [D8W]	1.91
EPLPVERLPAAGAAPFRFVARPVR [D8L]	2.22
EPLPVERIPAAGAAPFRFVARPVR [D8I]	2.91
EPLPVERAPAAGAAPFRFVARPVR [D8A]	2.26
EPLPVERPPAAGAAPFRFVARPVR [D8P]	2.4
EPLPVERQPAAGAAPFRFVARPVR [D8Q]	2.12
EPLPVERMPAAGAAPFRFVARPVR [D8M]	2.46
EPLPVERVPAAGAAPFRFVARPVR [D8V]	2.4
EPLPVERGPAAGAAPFRFVARPVR [D8G]	1.91
EPLPVERNPAAGAAPFRFVARPVR [D8N]	3.17
EPLPVERFPAAGAAPFRFVARPVR [D8F]	2.57
